The numbers were not newly measured in publication PMC7710720, which cites them from elsewhere.

The series deals with Neurotensin (Homo sapiens) (UniProt P30990).

Broadly, the Kd is the equilibrium constant for the complex coming apart. On to “Neurotensin receptor 2 (from UniProt O95665)”, for which the Kd was 6 nM.
